In patent US20240109967A1 (University of Pennsylvania, published 2024):
Each block holds one binder with its values, some of them ahead of it.

How the values were obtained:
[1] = target: T1, human complement C1q (in normal human complement serum) (human, UniProt P02745 23-245; P02746 28-253; P02747 29-245); test: complement fixation ELISA: antibody on captured cCTLA-4, human serum complement, anti-human C1q HRP
T1 construct: also called human serum complement

[2] = target: T2, recombinant human CD80-Fc chimera (carrier free, BioLegend) (human, UniProt P33681 35-242); test: ELISA: biotinylated cCTLA-4 ECD on plate-bound human CD80-Fc, streptavidin-AP, no antibody
T2 construct: Commercial protein; also called huCD80-Fc; huCD80; not shown: Fc of the commercial chimera, not described
T2 sequence (looked up): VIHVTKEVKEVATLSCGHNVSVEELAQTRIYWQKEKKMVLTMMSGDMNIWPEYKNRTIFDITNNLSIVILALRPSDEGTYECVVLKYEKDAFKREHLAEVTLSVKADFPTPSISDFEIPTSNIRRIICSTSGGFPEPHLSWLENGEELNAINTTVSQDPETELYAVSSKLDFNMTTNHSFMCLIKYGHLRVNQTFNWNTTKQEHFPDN

[3] = target: T3, recombinant human CD86-Fc chimera (carrier free, BioLegend) (human, UniProt P42081 24-247); test: ELISA: biotinylated cCTLA-4 ECD on plate-bound human CD86-Fc, streptavidin-AP, no antibody
T3 construct: Commercial protein; also called huCD86-Fc; huCD86; not shown: Fc of the commercial chimera, not described
T3 sequence (looked up): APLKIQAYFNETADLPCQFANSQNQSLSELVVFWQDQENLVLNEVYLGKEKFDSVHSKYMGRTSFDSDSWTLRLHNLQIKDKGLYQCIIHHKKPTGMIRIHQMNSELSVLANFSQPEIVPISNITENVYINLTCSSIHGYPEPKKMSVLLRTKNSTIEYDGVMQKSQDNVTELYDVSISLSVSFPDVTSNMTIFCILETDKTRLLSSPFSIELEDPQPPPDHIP

T1 sequence (P02745 23-245 limits assumed, chain 1 of 3): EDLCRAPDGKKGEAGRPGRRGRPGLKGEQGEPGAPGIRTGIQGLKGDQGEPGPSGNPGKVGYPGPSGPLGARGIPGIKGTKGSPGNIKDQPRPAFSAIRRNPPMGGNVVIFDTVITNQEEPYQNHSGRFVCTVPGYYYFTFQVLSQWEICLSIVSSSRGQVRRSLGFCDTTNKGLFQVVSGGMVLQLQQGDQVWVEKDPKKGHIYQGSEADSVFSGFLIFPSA
T1 sequence (P02746 28-253 limits assumed, chain 2 of 3): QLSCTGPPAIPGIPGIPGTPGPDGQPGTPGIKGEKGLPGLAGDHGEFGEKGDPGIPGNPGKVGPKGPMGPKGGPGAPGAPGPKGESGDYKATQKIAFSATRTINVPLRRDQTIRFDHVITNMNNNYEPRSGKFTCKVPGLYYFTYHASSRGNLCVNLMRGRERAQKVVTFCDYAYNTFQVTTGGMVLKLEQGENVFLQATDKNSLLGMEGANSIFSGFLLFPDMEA
T1 sequence (P02747 29-245 limits assumed, chain 3 of 3): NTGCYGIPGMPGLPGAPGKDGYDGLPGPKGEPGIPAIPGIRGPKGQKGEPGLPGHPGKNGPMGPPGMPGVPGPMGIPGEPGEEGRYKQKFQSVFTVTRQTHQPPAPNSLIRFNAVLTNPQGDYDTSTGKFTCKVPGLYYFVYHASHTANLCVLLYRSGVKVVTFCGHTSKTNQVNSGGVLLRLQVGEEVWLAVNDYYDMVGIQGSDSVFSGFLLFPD

binding result [1]: no binding (tested: 10 ug/ml antibody)
B1: A1mut2 full-length canine IgG4 (IgGD) mAb, HA-tagged (antibody)
heavy: EVQLVETGGDLVKPGGSLRLSCVASGFSFSSYAMNWVRQAPEKGLQLVGGINSGGSSTYYTDAVKGRFTISRDNAKNTVYLQMNSLRAEDTAVYYCAISNWAYWGQGTLVTVSSASTTAPSVFPLAPSCGSTSGSTVALACLVSGYFPEPVTVSWNSGSLTSGVHTFPSVLQSSGLYSLSSMVTVPSSRWPSETFTCNVVHPASNTKVDKPVPKESTCKCISPCPVPESLGGPSVFIFPPKPKDILRITRTPEITCVVLDLGREDPEVQISWFVDGKEVHTAKTQPREQQFNSTYRVVSVLPIEHQDWLTGKEFKCRVNHIGLPSPIERTISKARGQAHQPSVYVLPPSPKELSSSDTVTLTCLIKDFFPPEIDVEWQSNGQPEPESKYHTTAPQLDEDGSYFLYSKLSVDKSRWQQGDPFTCAVMHEALQNHYTDLSLSHSPGKGGGSGGGSYPYDVPDYA
light: QAVLNQPASVSGSLGQRVTISCTGSSSDIGKSYVAWYQQLPGTGPRTLINVDGNRASGVPDRFSVSRSGNTATLTISGLQAEDEADYHCSSWDWSLHTYVFGSGTQLTILGQPKASPSVTLFPPSSEELGANKATLVCLISDFYPSGVTVAWKADGSPITQGVETTKPSKQSNNKYAASSYLSLTPDKWKSHSSFSCLVTHEGSTVEKKVAPAECS
notes: also called A1mut2 IgGD

binding result [2]: binds | binding result [3]: binds
B2: recombinant canine CTLA-4 extracellular domain protein (receptor, not shown: small tags and cut ends)
chain: KGMHVAQPAVVLASSRGVASFVCEYGSSGNAAEVRVTVLRQAGSQMTEVCAATYTVEDELAFLDDSTCTGTSSGNKVNLTIQGLRAMDTGLYICKVELMYPPPYYVGMGNGTQIYVIDPEPCPDSD
modifications: biotin on the Avi tag (BirA ligase) in the ELISA, panning and interaction assays
notes: Cloned into pFUSE containing an HA tag, made in 293T cells; The SPR analyte is called soluble cCTLA-4 ECD, and biotinylation is not mentioned there; also called cCTLA-4; cCTLA-4 ECD
